Experimental data published in patent publication EP4775675A1 (Shanghai Hongcheng Biopharmaceutical Co., Ltd., dated 2026).

T1: human BDCA-2 on cells (Jurkat-hBDCA-2 cells; human pDCs; human PBMCs) (human, UniProt Q8WTT0 1-213)
T1 construct: whole, on cells; also called CD303; CLEC4C
T1 sequence (looked up): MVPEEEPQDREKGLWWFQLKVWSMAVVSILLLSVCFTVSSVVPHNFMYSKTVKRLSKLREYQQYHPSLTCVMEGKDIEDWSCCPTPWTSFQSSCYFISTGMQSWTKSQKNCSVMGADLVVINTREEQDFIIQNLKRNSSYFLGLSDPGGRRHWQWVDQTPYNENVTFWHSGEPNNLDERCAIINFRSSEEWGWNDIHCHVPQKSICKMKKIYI

T2: cynomolgus monkey BDCA-2 on cells (Jurkat-cynoBDCA-2 cells; cynomolgus monkey pDCs) (cynomolgus monkey, UniProt A0A2K5UWP4 1-212)
T2 construct: whole, on cells
T2 sequence: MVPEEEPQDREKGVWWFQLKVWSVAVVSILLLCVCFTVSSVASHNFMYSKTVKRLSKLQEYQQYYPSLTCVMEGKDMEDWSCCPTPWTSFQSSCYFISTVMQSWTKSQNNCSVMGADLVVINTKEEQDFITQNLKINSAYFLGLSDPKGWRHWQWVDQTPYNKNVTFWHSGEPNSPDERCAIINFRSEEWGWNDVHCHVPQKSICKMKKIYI

T3: human CLEC4D (human, UniProt Q8WXI8 39-215, limits assumed)
T3 sequence (looked up): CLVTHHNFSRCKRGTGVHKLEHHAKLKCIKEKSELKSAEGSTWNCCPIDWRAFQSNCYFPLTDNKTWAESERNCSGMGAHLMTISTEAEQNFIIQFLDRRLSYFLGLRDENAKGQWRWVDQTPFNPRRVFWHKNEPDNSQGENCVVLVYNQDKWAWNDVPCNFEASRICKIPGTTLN

T4: human CLEC6A (human, UniProt Q6EIG7 42-209, limits assumed)
T4 sequence (looked up): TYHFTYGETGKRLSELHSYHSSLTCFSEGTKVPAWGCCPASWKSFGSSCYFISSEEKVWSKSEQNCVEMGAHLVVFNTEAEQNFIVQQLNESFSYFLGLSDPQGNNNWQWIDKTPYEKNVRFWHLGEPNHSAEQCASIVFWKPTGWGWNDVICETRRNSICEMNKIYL

T5: human CLEC4A (human, UniProt Q9UMR7 70-237, limits assumed)
T5 sequence (looked up): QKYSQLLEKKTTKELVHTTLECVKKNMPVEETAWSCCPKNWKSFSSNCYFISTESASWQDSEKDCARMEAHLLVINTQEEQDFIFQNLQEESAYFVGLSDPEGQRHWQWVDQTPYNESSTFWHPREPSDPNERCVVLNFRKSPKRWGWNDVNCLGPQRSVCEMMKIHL

T6: human CLEC4E (human, UniProt Q9ULY5 41-219, limits assumed)
T6 sequence (looked up): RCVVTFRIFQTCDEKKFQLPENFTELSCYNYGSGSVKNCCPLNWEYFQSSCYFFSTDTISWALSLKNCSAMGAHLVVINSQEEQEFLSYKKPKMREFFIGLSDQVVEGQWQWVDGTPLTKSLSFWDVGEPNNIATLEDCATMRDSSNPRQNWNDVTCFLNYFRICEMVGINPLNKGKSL

T7: Human BDCA-2 protein (soluble, Octet analyte) (human, UniProt Q8WTT0 45-213, limits assumed)
T7 construct: Soluble protein used as analyte in BLI
T7 sequence (looked up): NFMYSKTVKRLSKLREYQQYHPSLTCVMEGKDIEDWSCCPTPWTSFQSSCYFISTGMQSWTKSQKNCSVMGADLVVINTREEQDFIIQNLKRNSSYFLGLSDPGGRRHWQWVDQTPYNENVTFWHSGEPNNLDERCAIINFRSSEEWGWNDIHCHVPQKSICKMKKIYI


Experiments:
[1] = target: T1, human BDCA-2 on cells (Jurkat-hBDCA-2 …); assay: flow cytometry on Jurkat-hBDCA-2 cells
[2] = target: T2, cynomolgus monkey BDCA-2 on cells …; assay: flow cytometry on Jurkat-cynoBDCA-2 cells
[3] = target: T3, human CLEC4D; assay: ELISA, coated protein 1 µg/ml
[4] = target: T4, human CLEC6A; assay: ELISA, coated protein 1 µg/ml
[5] = target: T5, human CLEC4A; assay: ELISA, coated protein 1 µg/ml
[6] = target: T6, human CLEC4E; assay: ELISA, coated protein 1 µg/ml
[7] = target: T7, Human BDCA-2 protein (soluble, Octet …); assay: BLI (Octet Red96e), antibody on anti-human IgG sensor, human BDCA-2 protein in solution
[8] = target: T1, human BDCA-2 on cells (Jurkat-hBDCA-2 …); assay: cell-based or functional assay

| EC50 [1] [µg/mL] | EC50 [2] [µg/mL] | binding result [3] | binding result [4] | binding result [5] | binding result [6] | Kd [7] [nM] | koff [7] [s⁻¹] | kon [7] [M⁻¹ s⁻¹] | EC50, inhibition of CpGA-induced type I interferon (IFNα) production in human PBMC cells [8] [µg/mL] | Binder |
| --- | --- | --- | --- | --- | --- | --- | --- | --- | --- | --- |
| 0.0429 | 0.158 |  |  |  |  |  |  |  |  | 164C11B8_hzH1L1_hIgG1 (antibody, V domains shown) VH: EVQLLESGGGLVQPGGSLRLSCAASGFTFSTYTMSWVRQAPGKGLEWVSTINSGGDNTYYPDSVKGRFTISRDNSKNTLYLQMNSLRAEDTAVYYCATYRPYYYGSVLDYWGQGTTVTVSS VL: DIVMTQSPDSLAVSLGERATINCKASQSVDYDGNSYVNWYQQKPGQPPKLLIYGASNLESGVPDRFSGSGSGTDFTLTISSLQAEDVAVYYCQQSDEDPWTFGGGTKVEIKR |
| 0.0675 |  |  |  |  |  |  |  |  |  | 164C11B8_hzH3L1_hIgG1 (antibody, V domains shown) VH: EVQLLESGGGLVQPGGSLRLSCAASGITFSTYTMSWVRQAPGKGLEWVATINSGGDNTYYPDSVKGRFTISRDNSKNTLYLQMNSLRAEDTAVYYCATYRPYYYGSVLDYWGQGTTVTVSS VL: DIVMTQSPDSLAVSLGERATINCKASQSVDYDGNSYVNWYQQKPGQPPKLLIYGASNLESGVPDRFSGSGSGTDFTLTISSLQAEDVAVYYCQQSDEDPWTFGGGTKVEIKR |
| 0.191 | 0.31 |  |  |  |  |  |  |  |  | 164C11B8_hzH4L1_hIgG1 (antibody, V domains shown) VH: EVQLLESGGGLVQPGGSLRLSCAASGITFSTYTMSWVRQAPGKRLEWVATINSGGDNTYYPDSVKGRFTISRDNSKNTLYLQMNSLRAEDTAVYYCATYRPYYYGSVLDYWGQGTTVTVSS VL: DIVMTQSPDSLAVSLGERATINCKASQSVDYDGNSYVNWYQQKPGQPPKLLIYGASNLESGVPDRFSGSGSGTDFTLTISSLQAEDVAVYYCQQSDEDPWTFGGGTKVEIKR |
| 0.104 | 0.252 |  |  |  |  |  |  |  |  | 164C11B8_hzH2L1_hIgG1 (antibody, V domains shown) VH: EVQLLESGGGLVQPGGSLRLSCAASGFTFSTYTMSWVRQAPGKGLEWVATINSGGDNTYYPDSVKGRFTISRDNSKNTLYLQMNSLRAEDTAVYYCATYRPYYYGSVLDYWGQGTTVTVSS VL: DIVMTQSPDSLAVSLGERATINCKASQSVDYDGNSYVNWYQQKPGQPPKLLIYGASNLESGVPDRFSGSGSGTDFTLTISSLQAEDVAVYYCQQSDEDPWTFGGGTKVEIKR |
| 0.18 | 0.0943 | no binding (tested: 10 µg/ml) | no binding (tested: 10 µg/ml) | no binding (tested: 10 µg/ml) | no binding (tested: 10 µg/ml) | 3.2 | 0.000567 | 176000 | 0.0014 | 17G6A2_hzH2L5_hIgG1 (antibody, V domains shown, Humanized, human IgG1/kappa (hzVH02 + hzVL05)) VH: EVQLVESGGGLVKPGGSLRLSCAASGFTFSSYGMSWVRQAPGKGLEWVATISSGDSYTYYPDSVKGRFTISRDNAKNSLYLQMNSLRAEDTAVYYCARQLYYSYGYYFDYWGQGTTVTVSS VL: DIVLTQSPASLAVSPGQRATITCRASESVSFHGTHLMHWYQQKPGQPPKLLIYAASNLESGVPARFSGSGSGTDFTLTINPVEAEDTANYYCQQSIEDPPTFGGGTKVEIKR |
| 0.0831 | 0.0663 | no binding (tested: 10 µg/ml) | no binding (tested: 10 µg/ml) | no binding (tested: 10 µg/ml) | no binding (tested: 10 µg/ml) |  |  |  | 0.0017 | 17G6A2_hzH3L6_hIgG1 (antibody, V domains shown, Humanized, human IgG1/kappa (hzVH03 + hzVL06)) VH: EVQLVESGGGLVKPGGSLRLSCAASGFTFSSYGMSWVRQAPGKRLEWVATISSGDSYTYYPDSVKGRFTISRDNAKNSLYLQMNSLRAEDTAVYYCARQLYYSYGYYFDYWGQGTTVTVSS VL: DIVLTQSPASLAVSPGQRATITCRASESVSFHGTHLMHWYQQKPGQPPKLLIYAASNLESGVPARFSGSGSGTDFTLTINPVEANDAANYYCQQSIEDPPTFGGGTKVEIKR |
| 0.066 | 0.101 | no binding (tested: 10 µg/ml) | no binding (tested: 10 µg/ml) | no binding (tested: 10 µg/ml) | no binding (tested: 10 µg/ml) |  |  |  | 0.0014 | 17G6A2_hzH3L5_hIgG1 (antibody, V domains shown, Humanized, human IgG1/kappa (hzVH03 + hzVL05)) VH: EVQLVESGGGLVKPGGSLRLSCAASGFTFSSYGMSWVRQAPGKRLEWVATISSGDSYTYYPDSVKGRFTISRDNAKNSLYLQMNSLRAEDTAVYYCARQLYYSYGYYFDYWGQGTTVTVSS VL: DIVLTQSPASLAVSPGQRATITCRASESVSFHGTHLMHWYQQKPGQPPKLLIYAASNLESGVPARFSGSGSGTDFTLTINPVEAEDTANYYCQQSIEDPPTFGGGTKVEIKR |
| 0.0456 | 0.0688 | no binding (tested: 10 µg/ml) | no binding (tested: 10 µg/ml) | no binding (tested: 10 µg/ml) | no binding (tested: 10 µg/ml) |  |  |  | 0.0011 | 17G6A2_hzH3L8_hIgG1 (antibody, V domains shown, Humanized, human IgG1/kappa (hzVH03 + hzVL08)) VH: EVQLVESGGGLVKPGGSLRLSCAASGFTFSSYGMSWVRQAPGKRLEWVATISSGDSYTYYPDSVKGRFTISRDNAKNSLYLQMNSLRAEDTAVYYCARQLYYSYGYYFDYWGQGTTVTVSS VL: DIVLTQSPASLAVSPGQRATITCRASESVSFHGTHLMHWYQQKPGQPPKLLIYAASNLESGVPARFSGSGSETDFTLTINPVEANDAANYYCQQSIEDPPTFGGGTKVEIKR |
| 0.0583 | 0.0975 | no binding (tested: 10 µg/ml) | no binding (tested: 10 µg/ml) | no binding (tested: 10 µg/ml) | no binding (tested: 10 µg/ml) |  |  |  | 0.0011 | 17G6A2_hzH3L7_hIgG1 (antibody, V domains shown, Humanized, human IgG1/kappa (hzVH03 + hzVL07)) VH: EVQLVESGGGLVKPGGSLRLSCAASGFTFSSYGMSWVRQAPGKRLEWVATISSGDSYTYYPDSVKGRFTISRDNAKNSLYLQMNSLRAEDTAVYYCARQLYYSYGYYFDYWGQGTTVTVSS VL: DIVLTQSPASLAVSPGQRATITCRASESVSFHGTHLMHWYQQKPGQPPKLLIYAASNLESGVPARFSGSGSETDFTLTINPVEAEDTANYYCQQSIEDPPTFGGGTKVEIKR |
| 0.0442 | 0.0781 | no binding (tested: 10 µg/ml) | no binding (tested: 10 µg/ml) | no binding (tested: 10 µg/ml) | no binding (tested: 10 µg/ml) | 6.3 | 0.000872 | 138000 | 0.0011 | 17G6A2_hzH1L8_hIgG1 (antibody, V domains shown, Humanized, human IgG1/kappa (hzVH01 + hzVL08); also called 17G6A2_hzHL8_hIgG1) VH: EVQLVESGGGLVKPGGSLRLSCAASGFTFSSYGMSWVRQAPGKGLEWVSTISSGDSYTYYPDSVKGRFTISRDNAKNSLYLQMNSLRAEDTAVYYCARQLYYSYGYYFDYWGQGTTVTVSS VL: DIVLTQSPASLAVSPGQRATITCRASESVSFHGTHLMHWYQQKPGQPPKLLIYAASNLESGVPARFSGSGSETDFTLTINPVEANDAANYYCQQSIEDPPTFGGGTKVEIKR |
